Test results reported in publication PMC6925226.
Several values for one entry are separate records, joined by “and”; a condition that tells them apart may be missing. Equal values may be shown once.

Key:
[1] = target: HML2 CA^rec (consensus HML2 capsid protein, P1-Q246) (human endogenous retrovirus HML2 (HERV-K), consensus); assay: cryo-EM structure; single-particle reconstruction of particles assembled in vitro at 1.4 M NaCl, 10 mg/mL, 4 °C, 1 h; T = 1, D5, D6 and T = 3 shells
[2] = target: HML2 CA^rec C-terminal domain (CA^rec-CTD, P156-Q246) (human endogenous retrovirus HML2 (HERV-K), consensus); assay: solution NMR structure (inter-molecular filtered NOEs); 298 K, 20 mM Tris-HCl, 50 mM NaCl, 0.5 mM TCEP, pH 7.0; asymmetrically labelled dimer from equimolar unlabelled and 13C/15N-labelled CA^rec-CTD, 2 mM total protein
[3] = target: HML2 CA^rec C-terminal domain (CA^rec-CTD, P156-Q246) (human endogenous retrovirus HML2 (HERV-K), consensus); assay: AUC; sedimentation equilibrium, 20 mM Tris-HCl pH 8, 150 mM NaCl, 0.5 mM TCEP; 50-200 µM protein, three speeds; global fit to a monomer-dimer equilibrium (monomer to dimer); MSTAR analysis at 200 µM

Substance	stoichiometry N [1]	stoichiometry N [2]	Ka [3] [M⁻¹]
HML2 CA^rec (consensus HML2 capsid protein, P1-Q246) (natural protein)	5 and 6	–	–
HML2 CA^rec C-terminal domain (CA^rec-CTD, P156-Q246) (domain or fragment)	–	2	3600
